Data set [1] can be described thus: Endo H resistance (ER exit), immunoblot. The settings on record: glycan lost; control: wild type. For orientation: A western blot detects proteins with antibodies after separation by electrophoresis.
Data set [2] in a line: DOPA oxidase recovery after culture at 31°C. The conditions noted are these: glycan lost; control: wild type.
Data set [3] is described as follows: DOPA oxidase specific activity, cells at 37°C. The conditions noted are these: glycan lost; control: wild type.
The nature of data set [4]: immunofluorescence co-localisation with ER marker calnexin. The conditions noted are these: glycan lost; control: wild type.
Data set [5] can be described thus: immunofluorescence co-localisation with ERGIC-53, nocodazole-treated cells. The settings on record: glycan lost; control: wild type.
Data set [6] is described as follows: pulse-chase IP with or without kifunensine. The settings on record: glycan lost; control: wild type (accumulates with kifunensine).
The nature of data set [7]: pulse-chase, DTT accessibility of disulfides, non-reducing SDS-PAGE. The settings on record: glycan lost; control: wild type.

From PMC3097235 come the findings set out here.

B1: human tyrosinase: Δ2 (protein)
parent chain: MLLAVLYCLLWSFQTSAGHFPRACVSSKNLMEKECCPPWSGDRSPCGQLSGRGSCQNILLSNAPLGPQFPFTGVDDRESWPSVFYNRTCQCSGNFMGFNCGNCKFGFWGPNCTERRLLVRRNIFDLSAPEKDKFFAYLTLAKHTISSDYVIPIGTYGQMKNGSTPMFNDINIYDLFVWMHYYVSMDALLGGSEIWRDIDFAHEAPAFLPWHRLFLLRWEQEIQKLTGDENFTIPYWDWRDAEKCDICTDEYMGGQHPTNPNLLSPASFFSSWQIVCSRLEEYNSHQSLCNGTPEGPLRRNPGNHDKSRTPRLPSSADVEFCLSLTQYESGSMDKAANFSFRNTLEGFASPLTGIADASQSSMHNALHIYMNGTMSQVQGSANDPIFLLHHAFVDSIFEQWLRRHRPLQEVYPEANAPIGHNRESYMVPFIPLYRNGDFFISSKDLGYDYSYLQDSDPDSFQDYIKSYLEQASRIWSWLLGAAMVGAVLTALLAGLVSLLCRHKRKQLPEEKQPLLMEKEDYHSLYQSHL
Turning to B1, the localisation_or_trafficking result is on record as “abolishes” in data set [1], “changes” in data set [4] and “no change” in data set [5]. Moreover, the stability_or_folding result in data set [2] was “decreases”. Further, the “enzymatic_activity, percent_of_wt” value in data set [3] is listed as “decreases, The remaining mutants show intermediate activity, ranging from 25% to 30%”.

B2: human tyrosinase: Δ6 (protein)
parent chain: MLLAVLYCLLWSFQTSAGHFPRACVSSKNLMEKECCPPWSGDRSPCGQLSGRGSCQNILLSNAPLGPQFPFTGVDDRESWPSVFYNRTCQCSGNFMGFNCGNCKFGFWGPNCTERRLLVRRNIFDLSAPEKDKFFAYLTLAKHTISSDYVIPIGTYGQMKNGSTPMFNDINIYDLFVWMHYYVSMDALLGGSEIWRDIDFAHEAPAFLPWHRLFLLRWEQEIQKLTGDENFTIPYWDWRDAEKCDICTDEYMGGQHPTNPNLLSPASFFSSWQIVCSRLEEYNSHQSLCNGTPEGPLRRNPGNHDKSRTPRLPSSADVEFCLSLTQYESGSMDKAANFSFRNTLEGFASPLTGIADASQSSMHNALHIYMNGTMSQVQGSANDPIFLLHHAFVDSIFEQWLRRHRPLQEVYPEANAPIGHNRESYMVPFIPLYRNGDFFISSKDLGYDYSYLQDSDPDSFQDYIKSYLEQASRIWSWLLGAAMVGAVLTALLAGLVSLLCRHKRKQLPEEKQPLLMEKEDYHSLYQSHL
Turning to B2, the localisation_or_trafficking entry in data set [1] was “abolishes”; in data set [4], “changes”; in data set [5] it was “no change”. For the same protein, the stability_or_folding entry in data set [2] was “decreases”. Moreover, in data set [3], the “enzymatic_activity, percent_of_wt” value is “abolishes”.

B3: human tyrosinase: Δ3 (protein)
parent chain: MLLAVLYCLLWSFQTSAGHFPRACVSSKNLMEKECCPPWSGDRSPCGQLSGRGSCQNILLSNAPLGPQFPFTGVDDRESWPSVFYNRTCQCSGNFMGFNCGNCKFGFWGPNCTERRLLVRRNIFDLSAPEKDKFFAYLTLAKHTISSDYVIPIGTYGQMKNGSTPMFNDINIYDLFVWMHYYVSMDALLGGSEIWRDIDFAHEAPAFLPWHRLFLLRWEQEIQKLTGDENFTIPYWDWRDAEKCDICTDEYMGGQHPTNPNLLSPASFFSSWQIVCSRLEEYNSHQSLCNGTPEGPLRRNPGNHDKSRTPRLPSSADVEFCLSLTQYESGSMDKAANFSFRNTLEGFASPLTGIADASQSSMHNALHIYMNGTMSQVQGSANDPIFLLHHAFVDSIFEQWLRRHRPLQEVYPEANAPIGHNRESYMVPFIPLYRNGDFFISSKDLGYDYSYLQDSDPDSFQDYIKSYLEQASRIWSWLLGAAMVGAVLTALLAGLVSLLCRHKRKQLPEEKQPLLMEKEDYHSLYQSHL
Consider B3, for which the localisation_or_trafficking result in data set [1] was “abolishes”; in data set [4], “changes”; in data set [5], “no change”. Besides, in data set [2], the stability_or_folding result is listed as “decreases”. The “enzymatic_activity, percent_of_wt” value in data set [3] is “decreases, The remaining mutants show intermediate activity, ranging from 25% to 30%”.

B4: human tyrosinase: Δ(5,6,7) (protein)
parent chain: MLLAVLYCLLWSFQTSAGHFPRACVSSKNLMEKECCPPWSGDRSPCGQLSGRGSCQNILLSNAPLGPQFPFTGVDDRESWPSVFYNRTCQCSGNFMGFNCGNCKFGFWGPNCTERRLLVRRNIFDLSAPEKDKFFAYLTLAKHTISSDYVIPIGTYGQMKNGSTPMFNDINIYDLFVWMHYYVSMDALLGGSEIWRDIDFAHEAPAFLPWHRLFLLRWEQEIQKLTGDENFTIPYWDWRDAEKCDICTDEYMGGQHPTNPNLLSPASFFSSWQIVCSRLEEYNSHQSLCNGTPEGPLRRNPGNHDKSRTPRLPSSADVEFCLSLTQYESGSMDKAANFSFRNTLEGFASPLTGIADASQSSMHNALHIYMNGTMSQVQGSANDPIFLLHHAFVDSIFEQWLRRHRPLQEVYPEANAPIGHNRESYMVPFIPLYRNGDFFISSKDLGYDYSYLQDSDPDSFQDYIKSYLEQASRIWSWLLGAAMVGAVLTALLAGLVSLLCRHKRKQLPEEKQPLLMEKEDYHSLYQSHL
Turning to B4, the “other: kifunensine rescue from degradation” value (from here on “other: kifunensine rescue”) in data set [6] is recorded as “decreases”.

B5: human tyrosinase: Δ4 (protein)
parent chain: MLLAVLYCLLWSFQTSAGHFPRACVSSKNLMEKECCPPWSGDRSPCGQLSGRGSCQNILLSNAPLGPQFPFTGVDDRESWPSVFYNRTCQCSGNFMGFNCGNCKFGFWGPNCTERRLLVRRNIFDLSAPEKDKFFAYLTLAKHTISSDYVIPIGTYGQMKNGSTPMFNDINIYDLFVWMHYYVSMDALLGGSEIWRDIDFAHEAPAFLPWHRLFLLRWEQEIQKLTGDENFTIPYWDWRDAEKCDICTDEYMGGQHPTNPNLLSPASFFSSWQIVCSRLEEYNSHQSLCNGTPEGPLRRNPGNHDKSRTPRLPSSADVEFCLSLTQYESGSMDKAANFSFRNTLEGFASPLTGIADASQSSMHNALHIYMNGTMSQVQGSANDPIFLLHHAFVDSIFEQWLRRHRPLQEVYPEANAPIGHNRESYMVPFIPLYRNGDFFISSKDLGYDYSYLQDSDPDSFQDYIKSYLEQASRIWSWLLGAAMVGAVLTALLAGLVSLLCRHKRKQLPEEKQPLLMEKEDYHSLYQSHL
Take B5: the localisation_or_trafficking entry in data set [1] is on record as “abolishes”; in data set [4], “changes”; in data set [5] it was “no change”. In data set [2], the stability_or_folding entry is given as “decreases”. Further, the “enzymatic_activity, percent_of_wt” value in data set [3] is reported as “decreases, The remaining mutants show intermediate activity, ranging from 25% to 30%”.

B6: human tyrosinase: Δ1 (protein)
parent chain: MLLAVLYCLLWSFQTSAGHFPRACVSSKNLMEKECCPPWSGDRSPCGQLSGRGSCQNILLSNAPLGPQFPFTGVDDRESWPSVFYNRTCQCSGNFMGFNCGNCKFGFWGPNCTERRLLVRRNIFDLSAPEKDKFFAYLTLAKHTISSDYVIPIGTYGQMKNGSTPMFNDINIYDLFVWMHYYVSMDALLGGSEIWRDIDFAHEAPAFLPWHRLFLLRWEQEIQKLTGDENFTIPYWDWRDAEKCDICTDEYMGGQHPTNPNLLSPASFFSSWQIVCSRLEEYNSHQSLCNGTPEGPLRRNPGNHDKSRTPRLPSSADVEFCLSLTQYESGSMDKAANFSFRNTLEGFASPLTGIADASQSSMHNALHIYMNGTMSQVQGSANDPIFLLHHAFVDSIFEQWLRRHRPLQEVYPEANAPIGHNRESYMVPFIPLYRNGDFFISSKDLGYDYSYLQDSDPDSFQDYIKSYLEQASRIWSWLLGAAMVGAVLTALLAGLVSLLCRHKRKQLPEEKQPLLMEKEDYHSLYQSHL
Regarding B6, the localisation_or_trafficking entry is on record as “decreases” in data set [1], “changes” in data set [4] and “no change” in data set [5]. In addition, the stability_or_folding entry in data set [2] is “decreases”. Moreover, in data set [3], the “enzymatic_activity, percent_of_wt” value was “decreases, The remaining mutants show intermediate activity, ranging from 25% to 30%”.

B7: human tyrosinase: Δ7 (protein)
parent chain: MLLAVLYCLLWSFQTSAGHFPRACVSSKNLMEKECCPPWSGDRSPCGQLSGRGSCQNILLSNAPLGPQFPFTGVDDRESWPSVFYNRTCQCSGNFMGFNCGNCKFGFWGPNCTERRLLVRRNIFDLSAPEKDKFFAYLTLAKHTISSDYVIPIGTYGQMKNGSTPMFNDINIYDLFVWMHYYVSMDALLGGSEIWRDIDFAHEAPAFLPWHRLFLLRWEQEIQKLTGDENFTIPYWDWRDAEKCDICTDEYMGGQHPTNPNLLSPASFFSSWQIVCSRLEEYNSHQSLCNGTPEGPLRRNPGNHDKSRTPRLPSSADVEFCLSLTQYESGSMDKAANFSFRNTLEGFASPLTGIADASQSSMHNALHIYMNGTMSQVQGSANDPIFLLHHAFVDSIFEQWLRRHRPLQEVYPEANAPIGHNRESYMVPFIPLYRNGDFFISSKDLGYDYSYLQDSDPDSFQDYIKSYLEQASRIWSWLLGAAMVGAVLTALLAGLVSLLCRHKRKQLPEEKQPLLMEKEDYHSLYQSHL
Turning to B7, the localisation_or_trafficking result in data set [1] was “abolishes”; in data set [4], “changes”; in data set [5], “no change”. Besides, in data set [6], the “other: kifunensine rescue” value is given as “no change”. Besides, the stability_or_folding result is reported as “abolishes” in data set [2] and “decreases” in data set [7]. For the same protein, in data set [3], the “enzymatic_activity, percent_of_wt” value is reported as “abolishes”.

B8: human tyrosinase: Δall (protein)
parent chain: MLLAVLYCLLWSFQTSAGHFPRACVSSKNLMEKECCPPWSGDRSPCGQLSGRGSCQNILLSNAPLGPQFPFTGVDDRESWPSVFYNRTCQCSGNFMGFNCGNCKFGFWGPNCTERRLLVRRNIFDLSAPEKDKFFAYLTLAKHTISSDYVIPIGTYGQMKNGSTPMFNDINIYDLFVWMHYYVSMDALLGGSEIWRDIDFAHEAPAFLPWHRLFLLRWEQEIQKLTGDENFTIPYWDWRDAEKCDICTDEYMGGQHPTNPNLLSPASFFSSWQIVCSRLEEYNSHQSLCNGTPEGPLRRNPGNHDKSRTPRLPSSADVEFCLSLTQYESGSMDKAANFSFRNTLEGFASPLTGIADASQSSMHNALHIYMNGTMSQVQGSANDPIFLLHHAFVDSIFEQWLRRHRPLQEVYPEANAPIGHNRESYMVPFIPLYRNGDFFISSKDLGYDYSYLQDSDPDSFQDYIKSYLEQASRIWSWLLGAAMVGAVLTALLAGLVSLLCRHKRKQLPEEKQPLLMEKEDYHSLYQSHL
With B8, the “other: kifunensine rescue” value in data set [6] was “abolishes”.
